This assay deals with CST (FLAG-Ctc1, Stn1, HA-Ten1) purified from HEK293T/17 cells (human) (UniProt Q2NKJ3). As to the kind of experiment: co-IP.

Substance “Polα/primase (endogenous), P09884 1-1462; Q14181 1-598; P49642 1-420; P49643 1-509” came in with a stoichiometry of Polα/primase to CST of 20%.
